Measurements: patent EP1443117B1 (UNIVERSITY OF VIRGINIA PATENT FOUNDATION, dated 2010)

Molecular target: T1, tssk 2 fused to the GAL4 DNA binding domain (DNA-BD) (human, UniProt P04386 1-147 (Saccharomyces cerevisiae entry), limits assumed)
T1 construct: Yeast two-hybrid bait expressed in reporter strain AH109; also called bait gene (tssk 2); fusion protein of TSSK2 with the DNA-BD
Test: yeast two-hybrid, growth in His-free medium (AH109 reporter strain)

binding result: no binding
B1: GAL4 activation domain alone (GAL-AD plasmid) (other, UniProt P04386 768-881, looked up)
chain: ANFNQSGNIADSSLSFTFTNSSNGPNLITTQTNSQALSQPIASSNVHDNFMNNEITASKIDDGNNSKPLSPGWTDQTAYNAFGITTGMFNTTTMDDVYNYLFDDEDTPPNPKKE
notes: also called GAL-AD alone
